41 sequences from the nanobody polyreactivity screen of Harvey et al. (2022) can be followed below.

The nature of this series: yeast display, Sf9 membrane polyspecificity reagent, FACS + sequencing; frameworks hold sequencing errors. In short, it runs like this: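 Galactose-induced (36–48 hours) yeast carrying a synthetic nanobody display library were exposed to 10% biotinylated, detergent-solubilized Sf9 membrane reagent at 4 °C for 1 hour. FACS followed streptavidin microbead enrichment, using low and high (top ~1%) gates for expression (anti-HA) and reagent binding (streptavidin). Colony PCR, MiSeq 2 × 250 sequencing and CDR-length filtering followed. Labels for polyreactivity reflect the gate of origin.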
Take “QVLLQESGGGLVQAGGSLRLSCAASGSIFLIYTMGWYRHAPVKEREFVAGITLGTTTYNADSVKGRFTISRDNVKNTVYLKMNILKPEDTEVYYCAVAVGHYTEFWYWGQGTQVTMSS”: the “polyreactivity (PSR sort gate)” value is “high polyreactivity”.
“QVLLQESGGGLVQAGGSLRMSCAASGNIFSAGGMGWYRQAPVNERELVAGIGTGTSTNYADSVKGRFTISRDNAKNTVYLQMNSLKPEDTAVYYCAAAYYSGLSHWYWGQGTQVTVSS”: the “polyreactivity (PSR sort gate)” value is “low polyreactivity”.
To “QVLLQESGGLVQAGCSLRMSCAASGSISTALSMGWYRQAPGKERELVATISDGASTNYADSVKGRFTISRVNAKNTVYLQMNSLKPEDSEVYYCAAQSQYRPDHRYWGQGTQVTVSS” belongs “high polyreactivity”.
To “QVLLVESGGCLVQAGGSVRLSCAASGSTFAPYVMGWYTQAPGKERELVADISTSGSTYYADSVKGRFTISRDNAKNTVYLQMNSMKPEDTAVYYCAAEDQRWFWTYDCWGQGTQVTVSS” belongs “high polyreactivity”.
For “QVLLVESGGGIVQAGGSLRLSCAASGSIIEPNAMGWYRQEPGQEREFVAAISGSGGSTYYADSVKGRFTSSRDNAKNTVYLQRNSLKPEYSAVYYCNALYLRTTPQDYDYWGQGTQVTVSS” the value was “high polyreactivity”; for “QVLLVESGGGLDHAGGSLPLSCAASGFTFGDNAMGWYRQAPGKERELVAAITSTGGSTNYADSVKGRFTISRDNAKYTVYLQMNSLKPDDTAVYYCAAEWLYRHDGGYPRPMDYWGQGTQVTVSS”, “low polyreactivity”; for “QVLLVESGGGLLQAGGSLRLSCAASGFTFLGYVMGWYRQAPGKEREFVADITESGGRTYYADSVKGRFTISRDNAKNTVYLQMNSLKPEDTAVYYCSGEVIFEQLNRMDYWGQGTQVTVSS”, “low polyreactivity”.
As for “QVLLVESGGGLVQAGGSIRLSCDASGLTFYQNSMGWYRQAPGKERELVAAISSTRITNYADSVKVRFTLSRDNAKTPVYLQMNSLIPEDTAVYYCNADYHPFFFEFIYWGQGTQGTVSS”, the “polyreactivity (PSR sort gate)” value is “high polyreactivity”.
For “QVLLVESGGGLVQAGGSLRLICAASGLIFFYYDMGWYRQAPGKERELVAAISQRGGSTYYADSLKGRFTISRDNEKNTVYLQMNSLKPEETAVYYCNVRSPASYRRYYWGQGTQVTVSS” the value was “high polyreactivity”.
As to “QVLLVESGGGLVQAGGSLRLSCAASGGTFGAYDMGWYRQAPGKERELVATITSGGRTNYADSVTGRFTISRDNAKNTVYLQMNSLKPVDTAVYYCNARYYGYDAPYHTYEYYYWGQGTQVTVSS”, the “polyreactivity (PSR sort gate)” value is “low polyreactivity”.
As to “QVLLVESGGGLVQAGGSLRLSCAASGRTFVYYTMGWDRQAPGKERELVAAINWRGTSTYYADSVKGRFTISRDNAKNTVYLQMNSLKPEDTAVYYCYAERNAGFDYWGQGTQVTVSS”, the “polyreactivity (PSR sort gate)” value is “high polyreactivity”.
As for “QVLLVESGGGLVQAGGSLRLSCAASGSIFIANAKGWYRQAPGKERELGAAIDSGGSTNYADSVKGRFTISRDNAKYTVYLQMNSLKPEDTAVYYCAADGTLTAPGGDYWGQGTQVTVSS”, the “polyreactivity (PSR sort gate)” value was “high polyreactivity”.
For “QVLLVESGGGLVQAGGSLRLSCAASGSTFWRNAMGWYRQATGKERELVAVISGSGSRTFYADSVKGRFTISRDNAKNTVNLQMNSLKPEDTAVYYCAADARQYQGFDYWGQGTQVTVSS”, the “polyreactivity (PSR sort gate)” value is on record as “high polyreactivity”.
With “QVLLVESGGGLVQAGGSLRLSCAPSGRTVDSYAMGWYRQAPGKETELVAAIDWGGGTTYYADSVKGRFRISRDNAKNSVYLQMNSLKPEDTAVYYCAAGDVWIAPYDSWGQGTQVTVSS”, the “polyreactivity (PSR sort gate)” value is recorded as “low polyreactivity”.
“QVLLVESGGGLVQAGGSLRLSCAPSGSIFDYYTMGWYRQAPGKERELVAAISSDGSTNYADSVKGRFTISRDNAKNTVYLQMNTLKPEDTAVYYCADSTYRFYYYLKRGYWGQGTKVTVSS”: the “polyreactivity (PSR sort gate)” value was “low polyreactivity”.
As to “QVLLVESGGGLVQAGGSLRLSSAASGSIFVCNAMGWYRQAPGKERELVAAIRGVDSTYYGDSVKGRFTISRDNGKNTFFLQMNSLKPEDTAFYYCATLGPGFPRYYDWGQGTQVTVSS”, the “polyreactivity (PSR sort gate)” value is given as “high polyreactivity”.
For “QVLLVESGGGLVQEGGSLRLSCAASGITFDTYAMGGYRQAPGKEREFVASIKWITGNTYYEDSVKGRFTISRDNAKNTVYLQMNSLKTEDTAVYYCAARTYYVRGLGGRPGMDYWGQGTQVTVSS”, the “polyreactivity (PSR sort gate)” value is recorded as “low polyreactivity”.
Turning to “QVNLLDSGGGLVKAGGSLRLTCAASGSIYHPYTMGLYRQATGKETELVAAISWSGGNTNYADSVKGRFTISRDYAKNTVYLQMNSLKPEDTAVYYFAAAKRDFVEYDYWGEGTQVTVSS”, the “polyreactivity (PSR sort gate)” value is given as “low polyreactivity”.
As for “QVNLVQSAGGLVQAGCSLRLSCPASGFILYKNAMGRYRQKPGKERELVAISSSGGSTYYADSVKGRFTISRENAKNTVYLLMNSLKPEDTAVYYCGAYIYGTYYYWGQGTQVTVSS”, the “polyreactivity (PSR sort gate)” value was “high polyreactivity”.
To “QVPLVESGGGIDQAGGSLRLSCAASGFIFCTYTMGWYIQAPGNEWELVAAISKSSGSTYYADSVKGRFTISRDNAKKTVYLQMNSLKPEDTAVYYCAAPTRSYGTPPYDYWGQGTQVTVSA” belongs “low polyreactivity”.
To “QVPLVESGGGLVQAGGSLRLSWAASGRTFVPYAMGWDSPAPGKDWELVAAISSGGDTNYADSVKGRVTISRDNAKNTVYLQMNSLKPEDTAVSYCAADVKRDRVWGGDYWGQGTQVTVSS” belongs “low polyreactivity”.
In the case of “QVPLVESGGGLVQAGVSLRLSCAASGSIFYLYAMGWYRQAPGKERELVAAISRSGASTYYADSVKGRFTISRDNAKNTVYLQMNSQKPEDTAVYYCAAYKIWGRVRYDYWGQGTQVTVSS”, the “polyreactivity (PSR sort gate)” value is “low polyreactivity”.
For “QVPLVESVGGLVQAGGSLRLSCAASGRIFRANAMGWYRQAPGKEREFVAAINFSVSSTYAYSVKGRFTISRDNAKNTVYLQMNSLKPEDTAVYYCAATPTREGEYWGQGTQVTVSS” the value was “low polyreactivity”.
To “QVQFVESGGGVVQAGGSLRLSCAASGNIPYWYAMGWSRPAPAKERELVAAISSRGNTYYADSVKGRFTISRDNAKNNVYLQMNSLKQEDTAVYYCAAYAGSFYYWGQGTQVTVSS” belongs “high polyreactivity”; to “QVQHAESGGGLDQAGGSLRLSCAASGGNFQANAMGWSRQATGKEREFVATITRGGGSTYYADSVKGRFTISRDNAKNTVYLQMNSLKPEDTAVYYCNSKPSYYQRYNYWGQGTQVTVSS”, “high polyreactivity”.
As to “QVQHDQSGGGLVQAGGSLRLSCAASGRTFKPYVMGRYREAPGKERELVAAISSRGDITYYADSVKGRFTITRDNAKNTVYLQMNSLKPEDTAVYYCNAGPAVRSAYSTPYYDYWGQGTQVTVSS”, the “polyreactivity (PSR sort gate)” value is on record as “low polyreactivity”.
Turning to “QVQHEDSGGGLVQAGGSHRVSCAASGSTFAYNAMGGSRKAPGKERELVATISTDGSTYADSVKGRFTISRDNAQNTVYLQMNSLKPEDTAVYYCNADGHPSDPGYDYWGQGTQVTVSS”, the “polyreactivity (PSR sort gate)” value is “low polyreactivity”.
Turning to “QVQHEESGGGLVQAGGSLRLSCAASGSIFSDYALGWYRPAPGKERELVAAITINGGSTYYADSVKGRFTISRDNAKITVYLQLNSLKPEDTAVEYCNAGWGRLYDYWGQGTQVTVSS”, the “polyreactivity (PSR sort gate)” value is “low polyreactivity”.
Take “QVQHGESGGGLVQAGSSLRLSCAASGSTIVNNAMGWYRQAPGKERELVAANTSGGSTNYADSVKGRFTISRDNAKNTVYLQMNSLKPEDTAVYYSNADGDSWYTGIPAVSHGYWGQGTQVTVSS”: the “polyreactivity (PSR sort gate)” value is “low polyreactivity”.
For “QVQHVASGGGIDQAGGSLRLSCAASGFIFSWYALGWYRQAPGKERELVAGISIRGGRTYADSVKGRFTISRDNAKNTVYLQMNSLTPEDTAVYSCATRSYRPYHSLYDYWGQGTQVTVSS” the value was “high polyreactivity”.
Turning to “QVQHVDSGGGLDHAGGSLRLSCAASGSIFAGYAMGWYRQAPAKERELDAAISSTGGRTYYADSVKGRFTISRDNAKTSVYLQMNSLKPEDTAVYYCGGAYYASYYYWGQGTQVTVSS”, the “polyreactivity (PSR sort gate)” value is on record as “high polyreactivity”.
With “QVQHVDSGGGLVQAGGSLRLSCAASGSTFGYNAMGWYRQAPGKERELVAAITFSGDSTSYADSVKGRFTISRDNAKNSVYLQMNSLKPEDTAVYYCAVDTWNGDGSGYSLEFEYWGQGTQVTVSS”, the “polyreactivity (PSR sort gate)” value is “low polyreactivity”.
With “QVQHVESCGGLVQAGGSLRLSCAASGSIFTYYAMGWYRQAPGKEREFVAAISRRGGSTYYADSVKGRFTISRDNAKNTVYLQMNSLKPEDTAVYYCNARYTGSSLYYWGQGTQVTVSS”, the “polyreactivity (PSR sort gate)” value was “high polyreactivity”.
On to “QVQHVESCGGLVQAGGSLRLSCAASGYIFSIYAMGWSRQAPGKERELVAAITWSGATTYYADSVKGRFSISRDNAKNTVYLQMNSLKPEDTAVYYCNADYWHYYEDYESWGQGTQVTVSS”, for which the “polyreactivity (PSR sort gate)” value is recorded as “low polyreactivity”.
With “QVQHVESGEGLVQAGGSLRLSCAASGSIFAGYAMGWYRQAPGKERELVAAITSSGGSTYYADSVKGRFTISRDNAKNTVYLQMNSLKPEDTAVYYCAKDKLIFYRVGSDYWGQGTQVTVSS”, the “polyreactivity (PSR sort gate)” value is recorded as “low polyreactivity”.
Consider “QVQHVESGGGIVQAGGSLRISCSASGRTLGYYAMGLYRQAPGKETEMVAASSRSGGSTYYADSVQGRFTNSRDNAKNTVYVEMQSLNPEDTAVYDCAATYGPSRYRYDYWGQGTQVTVSS”, for which the “polyreactivity (PSR sort gate)” value is “high polyreactivity”.
On to “QVQHVESGGGIVQAGGSLRLSCAASGRTFGPYAMGWYRQAPGKEWELVAVISGRGTSTYYADSVKGRFTISRDNAKNTVYLQMNSLKPEDTAVYYCKADYGSWFWGFDYWGQGTQVTVSS”, for which the “polyreactivity (PSR sort gate)” value was “low polyreactivity”.
For “QVQHVESGGGIVQAGGSLRLSCAASGSTFWRNAMGWYRQAPGKEREFVASISWSGGGTYYADSVKGRFTISRDNEKNTVYLQMNSLKPEDTAVYYCAATPDWSYWYGNGDYDYWGQVTQVTVSS” the value was “low polyreactivity”.
To “QVQHVESGGGLDQAGGRLRLSCAASGFTFARNAMGWYRQAPGKDRELVAAINRSGGSTYYADSVKGRFTISRDNAKNTVYLQMNSLKPEDTAVYYCNAPYAQFTSGYDYWGQGTQVTVSS” belongs “high polyreactivity”.
As for “QVQHVESGGGLDQAGGSLRLRCAAYGFTFSFYAMGWYRQEPGKERELVAAISYSGGITYYADSVKGRFTISRDNAKNTVYLQMNSLKPEDTAVYYCAAVPYYSKGSSLYNSGNNYWGQGTQVTVSS”, the “polyreactivity (PSR sort gate)” value is listed as “low polyreactivity”.
For “QVQHVESGGGLDQAGGSLRLSCAASGSILTRYVMGWYRQAPGKERELVAAISQRGGSTYYADSVTGRFTISRDTAKYTVFLQMNSLKPEDTAVYYCAAETRVTSRRRFDYWGQGTQVTVSS”, the “polyreactivity (PSR sort gate)” value is reported as “high polyreactivity”.
